Measurements taken from PMC5943514, “Substrate specificity of human MCPIP1 endoribonuclease” (Scientific Reports, 2018).

Target: T1, MCPIP1 D141N (Regnase-1), full length (Homo sapiens, UniProt Q5D1E8 1-599, D141N)
T1 sequence: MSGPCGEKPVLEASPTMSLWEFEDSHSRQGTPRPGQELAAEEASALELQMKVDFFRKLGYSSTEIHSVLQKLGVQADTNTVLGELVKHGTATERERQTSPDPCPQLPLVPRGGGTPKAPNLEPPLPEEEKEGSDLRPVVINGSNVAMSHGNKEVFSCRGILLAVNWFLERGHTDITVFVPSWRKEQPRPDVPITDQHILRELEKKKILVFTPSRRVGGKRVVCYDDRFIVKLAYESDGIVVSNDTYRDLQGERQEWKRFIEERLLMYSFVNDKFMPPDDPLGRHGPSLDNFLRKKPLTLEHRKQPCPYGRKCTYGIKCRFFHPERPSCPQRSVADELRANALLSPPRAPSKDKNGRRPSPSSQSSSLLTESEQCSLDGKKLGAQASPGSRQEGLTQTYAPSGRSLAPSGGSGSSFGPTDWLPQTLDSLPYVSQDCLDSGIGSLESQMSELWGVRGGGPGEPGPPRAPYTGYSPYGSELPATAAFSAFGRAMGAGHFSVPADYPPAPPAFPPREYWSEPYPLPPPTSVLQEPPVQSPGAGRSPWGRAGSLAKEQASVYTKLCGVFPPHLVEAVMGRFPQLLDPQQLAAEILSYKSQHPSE
Assay: EMSA; apparent Kd, Hill analysis; 1% agarose, TBE; 25 mM Tris-HCl pH 7.9, 150 mM NaCl, 5% glycerol, 2.5 mM MgCl2, 1 mM DTT, 0.5 mM EDTA, 0.05 mM ZnCl2, 25 C; oligo 2 nM (full length) or 20 nM (PIN, PIN-ZF)
Details: protein: recombinant; tags: none stated (purified by ion exchange); chain copies: 2; label: 5' 6-FAM; hairpin

UGUUGUUCUCUACGAAGAACUGACA (structured_RNA) [mIL-6 82-106 5'FAM]
Kd: 394 ± 45 nM
